# From paper PMC3017832, “Molecular analysis of phosphomannomutase (PMM) genes reveals a unique PMM duplication event in diverse Triticeae species and the main PMM isozymes in bread wheat tissues” (BMC Plant Biology, 2010)
# Assays:
# Experiment in all cases: spectrophotometric PMM assay (as in earlier work)
# Type in all cases: biochemical, Triticum aestivum
# Details in all cases: average of three experiments; temperature and pH not given
# [1] = substrate: O=P(O)(O)O[C@H]1O[C@H](CO)[C@@H](O)[C@H](O)[C@@H]1O
# Excerpt: spectrophotometric PMM assay (as in earlier work) on TaPMM-D2 | The average Km (mM, mannose-1-phosphate) values calculated for recombinant A1, D1 and D2 proteins
# [2] = substrate: O=P(O)(O)O[C@H]1O[C@H](CO)[C@@H](O)[C@H](O)[C@@H]1O; remark: listed apart in the source
# Excerpt: spectrophotometric PMM assay (as in earlier work) on TaPMM-A1 | The average Km (mM, mannose-1-phosphate) values calculated for recombinant A1, D1 and D2 proteins
# [3] = substrate: O=P(O)(O)O[C@H]1O[C@H](CO)[C@@H](O)[C@H](O)[C@@H]1O; remark: listed apart in the source
# Excerpt: spectrophotometric PMM assay (as in earlier work) on TaPMM-D1 | The average Km (mM, mannose-1-phosphate) values calculated for recombinant A1, D1 and D2 proteins
protein,measurement,setting,value
TaPMM-D2 (Triticum aestivum) (protein) MVASAARKNAGVLALFDVDGTLTAPRKEVTPEMLEFMKRLRENVTVGVVGGSDLVKISEQLGKSVITDYDYVFSENGLVAHKDGKLIGTQSLKTYLGDDQLKEFINFTLHYIADLDIPIKRGTFIEFRSGMINVSPIGRNCSQEERDDFEKYDKVHNVRPKMVSMLREKFAHLNLTFSIGGQISFDVFPHGWDKTYCLRYLDEFKEIHFFGDKTYKGGNDHEIFESDRTVGHTVTSPDDTVQQCRSIFLSK,Km,[1],480 ± 20 µM
TaPMM-A1 (Triticum aestivum) (protein) MAAARKDAGVLALFDVDGTLTAPRKEVTPEMLEFMKRLRENVTVGVVGGSDLVKISEQLGKSVITDYDYVFSENGLVAHKDGKLIGTQSLKTYLGDDQLKEFINFTLHYIADLDIPIKRGTFIEFRSGMINVSPIGRNCSQEERDDFEKYDKVHNVRPKMVSVLREKFAHLNLTFSIGGQISFDVFPQGWDKTYCLRYLEEFKEIHFFGDKTYKGGNDHEIFESDRTVGHTVTSPNDTVQQCKSIFLSE,Km,[2],460 ± 20 µM
TaPMM-D1 (Triticum aestivum) (protein) MAAAAAARKTAGVLALFDVDGTLTAPRKEVTPEMLEFMKRLRENVTVGVVGGSDLVKISEQLGKSVITDYDYVFSENGLVAHKDGKLIGTQSLKTYLGDDQLKEFINFTLHYIADLDIPIKRGTFIEFRSGMINVSPIGRNCSQEERDDFEKYDKVHNVRPKMVSVLREKFAHLNLTFSIGGQISFDVFPQGWDKTYCLRYLEEFKEIHFFGDKTYKGGNDHEIFESERTVGHTVTSPNDTVQQCKSIFLSE,Km,[3],400 ± 20 µM
